Laboratory results from the supplement of paper PMC10126150.
± gives the standard deviation of the averaged measurements.
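Further: ATP exposure 15 min at 22 °C before imaging.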

The sequences below were run on ATP (assay: switch fluorescence ratio, 500 uM ATP over buffer (Cy3 cluster intensity, sum of 5 cycles each) (fold (ratio)); higher = stronger signal-on switching upon ATP binding; sequences stand for … in TCGTCGGCAGCGTCAGATGTGTATAAGAGACAGTTTTTTTTTTTTTTTTTTTTTTTTT…TC). Conditions: aptamer strand: ATP DNA aptamer (quencher-CACCTGGGGGAGTATTGCGGAGGAAGG + anchor), 100 nM annealed; ATP concentration: 500 uM.
Method in brief: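 Between each of five buffer/ATP cycles, the flow-cell was stripped with NaOH and re-annealed. Each cycle imaged Cy3-labelled switching-strand clusters, annealed to 100 nM quencher-labelled ATP aptamer on a modified Illumina MiSeq flow-cell, first in selection buffer and then after 15 min with 500 uM ATP at 22 °C. The fluorescence ratio is summed target-cycle over summed buffer-cycle Cy3 intensity per cluster, averaged per switch-domain sequence, with clusters outside 100-1000 RFU excluded.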
Sequence CTTACGGGTC has a switch fluorescence ratio of 0.9901 ± 0.005. CGGCCATCGG gave a switch fluorescence ratio of 0.9978 ± 0.0049. For TTAGGCAGGT, the switch fluorescence ratio was 0.994 ± 0.048. Sequence TTTTGATCGT has a switch fluorescence ratio of 0.962 ± 0.023. Work on ACGGGATTTC yielded a switch fluorescence ratio of 1.05 ± 0.028. GGGGGAAGGG showed a switch fluorescence ratio of 0.984 ± 0.027. In the case of TGTATATAGC, the switch fluorescence ratio is reported as 1 ± 0.021. For GTCATGAGCG, the switch fluorescence ratio was 1 ± 0.012. AGGTTTGTTT showed a switch fluorescence ratio of 0.976 ± 0.0092. In the case of CGTCTAAGCG, the switch fluorescence ratio is reported as 1 ± 0.086. Sequence GCTTTATTTT has a switch fluorescence ratio of 1.09 ± 0.19. GGGGGCCCTT gave a switch fluorescence ratio of 1.02 ± 0.043. With TACGGGCACG the switch fluorescence ratio was 1.04 ± 0.028. Work on GGGAATCGGG yielded a switch fluorescence ratio of 1 ± 0.019. Work on TTTTCGGTCG yielded a switch fluorescence ratio of 0.999 ± 0.046. With TTTCGTGTGG the switch fluorescence ratio was 1.01 ± 0.086. TTCCACGTAT was tested, and the switch fluorescence ratio was 1.18 ± 0.046. GGTCTTTCG was tested, and the switch fluorescence ratio was 0.9794 ± 0.0025. Sequence TTGGGCTAAT has a switch fluorescence ratio of 0.994 ± 0.029. AATCGGTCTG showed a switch fluorescence ratio of 1.03 ± 0.02. For GGTCGCACCA, the switch fluorescence ratio was 1.02 ± 0.033. For TTGGTGACGC, the switch fluorescence ratio was 1.01 ± 0.026. Work on CAATTTAGTG yielded a switch fluorescence ratio of 1 ± 0.047. TATTAACGTT was tested, and the switch fluorescence ratio was 1.015 ± 0.0039. Sequence TGGGTATAAA has a switch fluorescence ratio of 0.976 ± 0.029. GGTTCAGCGT gave a switch fluorescence ratio of 0.984 ± 0.015. In the case of ATTTTGGAGG, the switch fluorescence ratio is reported as 0.9908 ± 0.0057. ACTTGCACTT showed a switch fluorescence ratio of 1.22 ± 0.038. With TCTTTTTCCC the switch fluorescence ratio was 1.01 ± 0.022. Sequence ACGAAGGGAG has a switch fluorescence ratio of 1.02 ± 0.031. In the case of TTAAAGACGT, the switch fluorescence ratio is reported as 1.51 ± 0.7. ATTTCCTGTG gave a switch fluorescence ratio of 1.042 ± 0.0014. ATTAAGGCCC showed a switch fluorescence ratio of 0.988 ± 0.044. AAGTCCGATA showed a switch fluorescence ratio of 0.9941 ± 0.0038. Work on ACCTTATAAT yielded a switch fluorescence ratio of 1.025 ± 0.0092. TTCTTAGATG was tested, and the switch fluorescence ratio was 1.016 ± 0.0088. Sequence AAAGAGAGTA has a switch fluorescence ratio of 1.01 ± 0.038. For GCGGTTCCTC, the switch fluorescence ratio was 1.05 ± 0.027. CGTGGCATTT was tested, and the switch fluorescence ratio was 1.03 ± 0.07. GATTTTGTTT showed a switch fluorescence ratio of 0.996 ± 0.027. TGGGCTCCTT was tested, and the switch fluorescence ratio was 1 ± 0.043. TAATATATTT was tested, and the switch fluorescence ratio was 1.01 ± 0.028. GGACGGTATG gave a switch fluorescence ratio of 1.02 ± 0.031. In the case of AGAGGTTATG, the switch fluorescence ratio is reported as 0.986 ± 0.041. In the case of GTTATTTAGA, the switch fluorescence ratio is reported as 1.03 ± 0.043. TAGGTGGGGC was tested, and the switch fluorescence ratio was 0.996 ± 0.03. Sequence GGTTTGGTAT has a switch fluorescence ratio of 0.99 ± 0.021. TATTTGTACT gave a switch fluorescence ratio of 1 ± 0.013. Work on TGATAGGGTG yielded a switch fluorescence ratio of 1.03 ± 0.053. Work on TGGACGGGTT yielded a switch fluorescence ratio of 1.02 ± 0.014. Sequence AGGCTGTGGG has a switch fluorescence ratio of 1.03 ± 0.015. TGTTGTAGGA showed a switch fluorescence ratio of 0.997 ± 0.015. Sequence TTAGTGTCGT has a switch fluorescence ratio of 1.02 ± 0.017. TGGGTGCGGT gave a switch fluorescence ratio of 0.991 ± 0.012. TTACACCTTT gave a switch fluorescence ratio of 1.02 ± 0.0085. Work on ACAGCTAAAA yielded a switch fluorescence ratio of 1.02 ± 0.016. With TCAACAGTTG the switch fluorescence ratio was 0.998 ± 0.011. In the case of AGATTTTTGG, the switch fluorescence ratio is reported as 1.003 ± 0.0026. For ACCTTTTAGT, the switch fluorescence ratio was 1.04 ± 0.018. In the case of TTTGGGGTGT, the switch fluorescence ratio is reported as 1.01 ± 0.06. For GCAATCATTC, the switch fluorescence ratio was 1.18 ± 0.087. In the case of GCGTACCAAT, the switch fluorescence ratio is reported as 1.067 ± 0.0033. TAATTGCGGT showed a switch fluorescence ratio of 1.007 ± 0.0045. Sequence GAAGTTTTGG has a switch fluorescence ratio of 0.996 ± 0.028. TACTTAGGTG gave a switch fluorescence ratio of 1.17 ± 0.12. Work on GTTTTATCCT yielded a switch fluorescence ratio of 1.05 ± 0.011. For GCGAGGTTGA, the switch fluorescence ratio was 1.045 ± 0.0015. With GATCTTCGTT the switch fluorescence ratio was 1.01 ± 0.041. TATTGTAGCT gave a switch fluorescence ratio of 1.01 ± 0.044. TTGTGGTAAG was tested, and the switch fluorescence ratio was 0.992 ± 0.022. Work on CGGTAACCGG yielded a switch fluorescence ratio of 0.979 ± 0.0098. CAGTAGGCGC showed a switch fluorescence ratio of 1.01 ± 0.011. GACTAGGCGG showed a switch fluorescence ratio of 1.12 ± 0.2. TTAGGGGGCA was tested, and the switch fluorescence ratio was 1.01 ± 0.03. For CAATATATCT, the switch fluorescence ratio was 1.01 ± 0.019. In the case of TTAACTAGAT, the switch fluorescence ratio is reported as 1.02 ± 0.016. AGGGTGGCGT was tested, and the switch fluorescence ratio was 0.9459 ± 0.0075. In the case of TTAGAAGTAT, the switch fluorescence ratio is reported as 1.03 ± 0.046. TCAATTTTTT gave a switch fluorescence ratio of 0.993 ± 0.016. GGTAGGTAGG was tested, and the switch fluorescence ratio was 1.01 ± 0.038. In the case of GAAAAAAGTA, the switch fluorescence ratio is reported as 1.01 ± 0.031. CTAGGAGCTT showed a switch fluorescence ratio of 1 ± 0.044. With CCCATGATGG the switch fluorescence ratio was 1.01 ± 0.046. For CTAGAAGTAT, the switch fluorescence ratio was 1.024 ± 0.0033. AAGGTTTTTA gave a switch fluorescence ratio of 0.993 ± 0.029. With TTAAATTACC the switch fluorescence ratio was 1.05 ± 0.032. For CGTGATGGTA, the switch fluorescence ratio was 0.969 ± 0.0098. Work on CAGGGCGACA yielded a switch fluorescence ratio of 0.9924 ± 0.0012. ATGTATATGC was tested, and the switch fluorescence ratio was 1.08 ± 0.069. Work on GAGAGGGTAT yielded a switch fluorescence ratio of 0.966 ± 0.012. GATCAGCCCG was tested, and the switch fluorescence ratio was 1.016 ± 0.005. CGTGTCTTAA was tested, and the switch fluorescence ratio was 0.974 ± 0.021. Sequence TAATAATTCT has a switch fluorescence ratio of 0.99 ± 0.019. With GAAATCAGCA the switch fluorescence ratio was 1.03 ± 0.023. Sequence GCTATATTGG has a switch fluorescence ratio of 0.9933 ± 0.0091. For CGATAAAGAG, the switch fluorescence ratio was 1.02 ± 0.013. Sequence TTATTTTAAA has a switch fluorescence ratio of 1.01 ± 0.024. Work on TATAAGAAGC yielded a switch fluorescence ratio of 0.993 ± 0.021. GTAAAATGTT was tested, and the switch fluorescence ratio was 1.03 ± 0.035. For ATGTAGGTGA, the switch fluorescence ratio was 1.03 ± 0.017. TACGCTTTTT was tested, and the switch fluorescence ratio was 1.02 ± 0.055. TACGTGGGGG gave a switch fluorescence ratio of 1.02 ± 0.029. Work on ACTGCCGGTG yielded a switch fluorescence ratio of 1.25 ± 0.053. In the case of GGACATTATA, the switch fluorescence ratio is reported as 1.031 ± 0.0056. ACTCCGACCG showed a switch fluorescence ratio of 1.72 ± 0.14. In the case of TCCAGGTTGG, the switch fluorescence ratio is reported as 1.15 ± 0.048. With ACCGTATTTG the switch fluorescence ratio was 1.119 ± 0.0047. Sequence CGAAGGTTTT has a switch fluorescence ratio of 1.02 ± 0.015. TAAGTTGGTA was tested, and the switch fluorescence ratio was 0.9521 ± 0.0054. TGGAAGTTGG showed a switch fluorescence ratio of 0.989 ± 0.023. GTTGGTATGT showed a switch fluorescence ratio of 0.994 ± 0.018. AAGAGTTCTT gave a switch fluorescence ratio of 1.01 ± 0.03. In the case of CCTAGGCTTT, the switch fluorescence ratio is reported as 1.117 ± 0.0063. AAGGTCCGCT was tested, and the switch fluorescence ratio was 1.05 ± 0.02. ACGCAGTTCC gave a switch fluorescence ratio of 1.151 ± 0.0075. ACGTAGTGCG was tested, and the switch fluorescence ratio was 1 ± 0.023. TGATTCGTTT gave a switch fluorescence ratio of 0.985 ± 0.094. TTTCAAGGGC showed a switch fluorescence ratio of 1.04 ± 0.027. TCGTCGTAGC gave a switch fluorescence ratio of 1.05 ± 0.072. AGATTGGGGT gave a switch fluorescence ratio of 1.01 ± 0.017. GAGTATTTTC showed a switch fluorescence ratio of 1.015 ± 0.0065. With GGGTAAGGCA the switch fluorescence ratio was 0.986 ± 0.071. For GGGGGATTTT, the switch fluorescence ratio was 0.999 ± 0.027. Sequence CAATCATGTT has a switch fluorescence ratio of 1.02 ± 0.027. TGATGCATGG showed a switch fluorescence ratio of 1.05 ± 0.048. With ACGATTATGC the switch fluorescence ratio was 1.04 ± 0.11. Work on AGGGTGTTTT yielded a switch fluorescence ratio of 1.01 ± 0.028. TTCGTTTACA showed a switch fluorescence ratio of 1.01 ± 0.028. In the case of GAGGGGAGGC, the switch fluorescence ratio is reported as 1.29 ± 0.39. GGTATGGGTG gave a switch fluorescence ratio of 1.023 ± 0.0055. TGGCGGGGCG gave a switch fluorescence ratio of 1.02 ± 0.038. TGGTTTGGTG gave a switch fluorescence ratio of 0.985 ± 0.034. GGAGCTCGGG showed a switch fluorescence ratio of 0.975 ± 0.038. For GGTTTTTTGT, the switch fluorescence ratio was 0.992 ± 0.017. Sequence ACGCCACATT has a switch fluorescence ratio of 1.55 ± 0.091. With GATGGTGAGA the switch fluorescence ratio was 1.02 ± 0.065. For CGAACGGGGG, the switch fluorescence ratio was 1 ± 0.032. In the case of CAGGAGTCGG, the switch fluorescence ratio is reported as 1.01 ± 0.014. Work on AGGGGTGGTC yielded a switch fluorescence ratio of 1.04 ± 0.017. GTTTAAACTC was tested, and the switch fluorescence ratio was 0.961 ± 0.022. AGGCATCGGA gave a switch fluorescence ratio of 0.9953 ± 0.0063. Work on TTGGGTAGAA yielded a switch fluorescence ratio of 0.986 ± 0.045. With GGTTCGACTG the switch fluorescence ratio was 0.951 ± 0.046. Sequence GAAATTGATG has a switch fluorescence ratio of 0.983 ± 0.017. In the case of TTAGGGTCCC, the switch fluorescence ratio is reported as 1.02 ± 0.016. GTTGCTTAGT was tested, and the switch fluorescence ratio was 0.9724 ± 0.0038. GGATAAGGGG gave a switch fluorescence ratio of 1.02 ± 0.039. In the case of CGATGGTAGA, the switch fluorescence ratio is reported as 1.03 ± 0.027. Work on TGTGATGAT yielded a switch fluorescence ratio of 1.01 ± 0.028. TTATGGGCGG was tested, and the switch fluorescence ratio was 1.02 ± 0.047. TTCTCAATGT gave a switch fluorescence ratio of 1.08 ± 0.14. CTTCAGTTAC gave a switch fluorescence ratio of 1.82 ± 0.19. For AATACCATCG, the switch fluorescence ratio was 1.05 ± 0.033. With GGCCGGTGTA the switch fluorescence ratio was 1.03 ± 0.013. Sequence TTAGGGGTGC has a switch fluorescence ratio of 1.07 ± 0.037. In the case of ATATTCTACT, the switch fluorescence ratio is reported as 1.025 ± 3.1e-05. AAAAGCACGA gave a switch fluorescence ratio of 1.09 ± 0.2.
